The target of data set [1] is T1, egrh-3 (Y94H6A.11) (Caenorhabditis elegans) (UniProt U4PLQ8).
T1 sequence: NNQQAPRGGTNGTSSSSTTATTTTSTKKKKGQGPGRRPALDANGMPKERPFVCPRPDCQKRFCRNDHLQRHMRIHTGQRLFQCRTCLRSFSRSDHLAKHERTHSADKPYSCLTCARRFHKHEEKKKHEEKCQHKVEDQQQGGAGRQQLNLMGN

In data set [2] the target is T2, ztf-29 (Y66D12A.12) (Caenorhabditis elegans) (UniProt Q95Q03).
T2 sequence: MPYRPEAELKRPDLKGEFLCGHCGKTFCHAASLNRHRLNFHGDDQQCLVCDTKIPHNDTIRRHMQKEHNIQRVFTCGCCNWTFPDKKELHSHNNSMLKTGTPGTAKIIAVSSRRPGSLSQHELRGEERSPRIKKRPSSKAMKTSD

For data set [3], the target named is ztf-11 (F52F12.6) (Caenorhabditis elegans) (UniProt O02274).
Chain of ztf-11 (F52F12.6) (Caenorhabditis elegans) (O02274 212-388): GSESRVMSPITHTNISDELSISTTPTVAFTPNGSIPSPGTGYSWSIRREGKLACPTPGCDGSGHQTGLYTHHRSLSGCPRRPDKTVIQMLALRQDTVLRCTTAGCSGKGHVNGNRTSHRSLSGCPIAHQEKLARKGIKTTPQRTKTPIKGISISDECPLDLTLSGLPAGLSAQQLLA
Data set [4] concerns the target T3, C27D6.4 (C27D6.4) (Caenorhabditis elegans) (UniProt Q4JFH9).
T3 sequence: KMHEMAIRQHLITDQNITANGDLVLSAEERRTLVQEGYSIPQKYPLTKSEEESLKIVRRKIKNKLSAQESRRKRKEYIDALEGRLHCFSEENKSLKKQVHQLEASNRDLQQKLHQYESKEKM

For data set [5], the system named is T4, syd-9 (ZK867.1) (Caenorhabditis elegans).
T4 sequence: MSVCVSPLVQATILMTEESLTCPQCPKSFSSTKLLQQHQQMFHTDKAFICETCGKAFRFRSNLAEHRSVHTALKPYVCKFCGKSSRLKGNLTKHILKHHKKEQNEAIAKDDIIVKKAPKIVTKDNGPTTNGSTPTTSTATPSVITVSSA

The target of data set [6] is T5, ZK337.2 (ZK337.2) (Caenorhabditis elegans) (UniProt O46016).
T5 sequence: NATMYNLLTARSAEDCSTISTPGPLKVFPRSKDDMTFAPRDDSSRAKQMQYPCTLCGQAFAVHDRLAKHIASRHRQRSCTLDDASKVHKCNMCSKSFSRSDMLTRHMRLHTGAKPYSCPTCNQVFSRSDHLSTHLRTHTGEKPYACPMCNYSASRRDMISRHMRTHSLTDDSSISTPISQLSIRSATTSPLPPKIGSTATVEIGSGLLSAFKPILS

Data set [7] deals with ZC328.2 (ZC328.2) (Caenorhabditis elegans) (UniProt O02050).
Chain of ZC328.2 (ZC328.2) (Caenorhabditis elegans) (O02050 entry or part of it): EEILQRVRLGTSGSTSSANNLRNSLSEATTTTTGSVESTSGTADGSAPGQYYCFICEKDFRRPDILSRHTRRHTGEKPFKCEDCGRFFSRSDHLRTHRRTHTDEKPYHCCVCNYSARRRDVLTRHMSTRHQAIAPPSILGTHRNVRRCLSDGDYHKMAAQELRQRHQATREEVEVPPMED
Data set [8] deals with T6, Y53H1A.2 (Y53H1A.2) (Caenorhabditis elegans) (UniProt B1V8K4).
T6 sequence: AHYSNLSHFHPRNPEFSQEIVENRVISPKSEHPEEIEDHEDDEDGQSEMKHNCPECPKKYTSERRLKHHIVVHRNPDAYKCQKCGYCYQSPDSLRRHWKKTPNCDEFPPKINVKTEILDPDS

The sequence “CCCCCCCA (double strand) [8-mer CCCCCCCA]” yielded a binding signal (PBM E-score (-0.5 to 0.5)) in data set [1] of 0.496.

On to “AAGCTTGT (double strand) [8-mer AAGCTTGT]”, for which, in data set [2], the binding signal (PBM E-score (-0.5 to 0.5)) was determined as 0.489. In data set [3], “AAGTTTTC (double strand) [8-mer AAGTTTTC]” registered a binding signal (PBM E-score (-0.5 to 0.5)) of 0.48. As to “ACGTGTCA (double strand) [8-mer ACGTGTCA]”, the binding signal (PBM E-score (-0.5 to 0.5)) in data set [4] amounted to 0.495.

In turn, “ACTGTACC (double strand) [8-mer ACTGTACC]” displayed a binding signal (PBM E-score (-0.5 to 0.5)) in data set [5] of 0.489. “AAGTTTCG (double strand) [8-mer AAGTTTCG]”: the binding signal (PBM E-score (-0.5 to 0.5)) in data set [3] amounted to 0.483. Regarding “CACGTGGA (double strand) [8-mer CACGTGGA]”, in data set [4], the binding signal (PBM E-score (-0.5 to 0.5)) was 0.495. “ACCCCCCC (double strand) [8-mer ACCCCCCC]”: the binding signal (PBM E-score (-0.5 to 0.5)) in data set [1] is 0.497. In the case of “AAAAGTTT (double strand) [8-mer AAAAGTTT]”, the binding signal (PBM E-score (-0.5 to 0.5)) in data set [3] worked out at 0.492. In data set [5], “ACTGTACA (double strand) [8-mer ACTGTACA]” gave a binding signal (PBM E-score (-0.5 to 0.5)) of 0.494. For “AGGGGGAG (double strand) [8-mer AGGGGGAG]”, the binding signal (PBM E-score (-0.5 to 0.5)) in data set [1] was found to be 0.493. In data set [4], “ACACGTGT (double strand) [8-mer ACACGTGT]” had a binding signal (PBM E-score (-0.5 to 0.5)) of 0.497.

In data set [1], “AAGGGGGG (double strand) [8-mer AAGGGGGG]” registered a binding signal (PBM E-score (-0.5 to 0.5)) of 0.495. For the sequence “GACGTGGC (double strand) [8-mer GACGTGGC]”, the binding signal (PBM E-score (-0.5 to 0.5)) in data set [4] stood at 0.494. “CACCCACG (double strand) [8-mer CACCCACG]”: the binding signal (PBM E-score (-0.5 to 0.5)) in data set [6] was 0.484.

“AACTGTAC (double strand) [8-mer AACTGTAC]” came in with a binding signal (PBM E-score (-0.5 to 0.5)) in data set [5] of 0.492. Sequence “GCCCCCCC (double strand) [8-mer GCCCCCCC]” returned a binding signal (PBM E-score (-0.5 to 0.5)) in data set [1] of 0.496. The sequence “GCCCCCGC (double strand) [8-mer GCCCCCGC]” yielded a binding signal (PBM E-score (-0.5 to 0.5)) in data set [6] of 0.489.

In turn, “AAACTTCG (double strand) [8-mer AAACTTCG]” showed a binding signal (PBM E-score (-0.5 to 0.5)) in data set [3] of 0.487. With “GGGGGGGA (double strand) [8-mer GGGGGGGA]”, the binding signal (PBM E-score (-0.5 to 0.5)) in data set [1] came to 0.499.

As to “CGCCCACC (double strand) [8-mer CGCCCACC]”, the binding signal (PBM E-score (-0.5 to 0.5)) in data set [7] and in data set [8] was 0.484 throughout. In data set [7], “CCGCCTAC (double strand) [8-mer CCGCCTAC]” displayed a binding signal (PBM E-score (-0.5 to 0.5)) of 0.488. Turning to “CCCCCCTC (double strand) [8-mer CCCCCCTC]”, the binding signal (PBM E-score (-0.5 to 0.5)) in data set [1] came to 0.497. On the same count and under the same terms, in the case of “GGGGGAGA (double strand) [8-mer GGGGGAGA]” it was 0.493. Consider “CCACCCAC (double strand) [8-mer CCACCCAC]”, for which the binding signal (PBM E-score (-0.5 to 0.5)) in data set [6] came out at 0.491. For “AAACTTTG (double strand) [8-mer AAACTTTG]”, in data set [3], the binding signal (PBM E-score (-0.5 to 0.5)) was 0.481. For the sequence “AAAAGCTT (double strand) [8-mer AAAAGCTT]”, the binding signal (PBM E-score (-0.5 to 0.5)) in data set [2] is 0.492. Consider “CCCCACGC (double strand) [8-mer CCCCACGC]”, for which the binding signal (PBM E-score (-0.5 to 0.5)) in data set [7] amounted to 0.485. Turning to “GAACTGTA (double strand) [8-mer GAACTGTA]”, in data set [5], the binding signal (PBM E-score (-0.5 to 0.5)) amounted to 0.492. The sequence “CGGTCGGC (double strand) [8-mer CGGTCGGC]” gave a binding signal (PBM E-score (-0.5 to 0.5)) in data set [8] of 0.487. The sequence “CCTCCCCC (double strand) [8-mer CCTCCCCC]” came in with a binding signal (PBM E-score (-0.5 to 0.5)) in data set [1] of 0.496. For the sequence “AGGGGGGA (double strand) [8-mer AGGGGGGA]”, in data set [1], the binding signal (PBM E-score (-0.5 to 0.5)) came out at 0.493.

On to “GAAACTTC (double strand) [8-mer GAAACTTC]”, for which, in data set [3], the binding signal (PBM E-score (-0.5 to 0.5)) was 0.481. “GGTCGGCA (double strand) [8-mer GGTCGGCA]” registered a binding signal (PBM E-score (-0.5 to 0.5)) in data set [8] of 0.481. Take “CACGTGTA (double strand) [8-mer CACGTGTA]”: the binding signal (PBM E-score (-0.5 to 0.5)) in data set [4] came out at 0.494. “CAAACTTC (double strand) [8-mer CAAACTTC]” showed a binding signal (PBM E-score (-0.5 to 0.5)) in data set [3] of 0.48. “CCCCCCGC (double strand) [8-mer CCCCCCGC]” yielded a binding signal (PBM E-score (-0.5 to 0.5)) in data set [7] of 0.486.

“CCCCCCCC (double strand) [8-mer CCCCCCCC]”: the binding signal (PBM E-score (-0.5 to 0.5)) in data set [1] stood at 0.5. Take “AAGTTTGA (double strand) [8-mer AAGTTTGA]”: the binding signal (PBM E-score (-0.5 to 0.5)) in data set [3] amounted to 0.48.

In the case of “CCGCCCCC (double strand) [8-mer CCGCCCCC]”, the binding signal (PBM E-score (-0.5 to 0.5)) in data set [6] came to 0.495. Sequence “AGGGGGGG (double strand) [8-mer AGGGGGGG]” gave a binding signal (PBM E-score (-0.5 to 0.5)) in data set [1] of 0.498. “CGGTGGGC (double strand) [8-mer CGGTGGGC]” had a binding signal (PBM E-score (-0.5 to 0.5)) in data set [8] of 0.491.

As for “CACGTGTC (double strand) [8-mer CACGTGTC]”, in data set [4], the binding signal (PBM E-score (-0.5 to 0.5)) was found to be 0.496. Regarding “CGACCACC (double strand) [8-mer CGACCACC]”, the binding signal (PBM E-score (-0.5 to 0.5)) in data set [8] was 0.486. As to “CGCCCACA (double strand) [8-mer CGCCCACA]”, the binding signal (PBM E-score (-0.5 to 0.5)) in data set [6] was 0.484.

Consider “ACACGTGG (double strand) [8-mer ACACGTGG]”, for which, in data set [4], the binding signal (PBM E-score (-0.5 to 0.5)) stood at 0.498. In data set [5], “ACTGTAAT (double strand) [8-mer ACTGTAAT]” showed a binding signal (PBM E-score (-0.5 to 0.5)) of 0.489. In the case of “CCACCCCC (double strand) [8-mer CCACCCCC]”, the binding signal (PBM E-score (-0.5 to 0.5)) in data set [6] is 0.485. On to “GGTGGGCA (double strand) [8-mer GGTGGGCA]”, for which the binding signal (PBM E-score (-0.5 to 0.5)) in data set [8] was determined as 0.487.

“CGGCCGAC (double strand) [8-mer CGGCCGAC]”: in data set [8], the binding signal (PBM E-score (-0.5 to 0.5)) was found to be 0.486. For “GGGGGGAA (double strand) [8-mer GGGGGGAA]”, the binding signal (PBM E-score (-0.5 to 0.5)) in data set [1] amounted to 0.493.

“ACGTGGAT (double strand) [8-mer ACGTGGAT]” came in with a binding signal (PBM E-score (-0.5 to 0.5)) in data set [4] of 0.492.

In turn, “CGGCGGCC (double strand) [8-mer CGGCGGCC]” displayed a binding signal (PBM E-score (-0.5 to 0.5)) in data set [8] of 0.485. Regarding “CCCCCACG (double strand) [8-mer CCCCCACG]”, the binding signal (PBM E-score (-0.5 to 0.5)) in data set [7] amounted to 0.48. The sequence “CACCCCCA (double strand) [8-mer CACCCCCA]” gave a binding signal (PBM E-score (-0.5 to 0.5)) in data set [6] of 0.482. Consider “CGCCCCCC (double strand) [8-mer CGCCCCCC]”, for which, in data set [7], the binding signal (PBM E-score (-0.5 to 0.5)) came to 0.487. Regarding “CTCCCCCC (double strand) [8-mer CTCCCCCC]”, the binding signal (PBM E-score (-0.5 to 0.5)) in data set [1] worked out at 0.497. Sequence “GCGGCCGC (double strand) [8-mer GCGGCCGC]” displayed a binding signal (PBM E-score (-0.5 to 0.5)) in data set [8] of 0.488. “ACTGTACG (double strand) [8-mer ACTGTACG]”: the binding signal (PBM E-score (-0.5 to 0.5)) in data set [5] stood at 0.491. With “CGGTGGTC (double strand) [8-mer CGGTGGTC]”, the binding signal (PBM E-score (-0.5 to 0.5)) in data set [8] came out at 0.481. As to “CGGTCGTC (double strand) [8-mer CGGTCGTC]”, the binding signal (PBM E-score (-0.5 to 0.5)) in data set [8] was 0.483.

For “CCCCCCAC (double strand) [8-mer CCCCCCAC]”, the binding signal (PBM E-score (-0.5 to 0.5)) in data set [1] came out at 0.495.

Consider “ACGTGGCG (double strand) [8-mer ACGTGGCG]”, for which, in data set [4], the binding signal (PBM E-score (-0.5 to 0.5)) came to 0.498. In turn, “GACTGTAC (double strand) [8-mer GACTGTAC]” returned a binding signal (PBM E-score (-0.5 to 0.5)) in data set [5] of 0.49.

The record behind these values is PMC4434323.
